The results in this text go back to publication PMC7515728, “YdiV regulates Escherichia coli ferric uptake by manipulating the DNA-binding ability of Fur in a SlyD-dependent manner” (Nucleic Acids Research, 2020).

In series [1] the target is Fur in the bacterial two-hybrid plasmid pUT18C-fur (Escherichia coli) (UniProt P0A9A9). The series is described as follows: two-hybrid; bacterial two-hybrid by reconstitution of adenylate cyclase (T18/T25) in E. coli BTH101; LB-X-Gal plates and β-galactosidase assay (Miller method).
The target of the next series is T1, Fur P29A (Escherichia coli, UniProt P0A9A9 1-148, P29A).
T1 sequence: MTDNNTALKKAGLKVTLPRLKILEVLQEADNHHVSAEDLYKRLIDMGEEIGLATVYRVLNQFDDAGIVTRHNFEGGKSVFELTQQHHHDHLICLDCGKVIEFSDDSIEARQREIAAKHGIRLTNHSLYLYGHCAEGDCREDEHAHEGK
The series is described as follows: EMSA; 100 uM MnCl2; 30 uM protein; EMSA: 10 mM Tris-HCl pH 7.5, 1 mM MgCl2, 40 mM KCl, 0.1 mg/ml BSA, 5% glycerol, +/-100 uM MnCl2, 25 nM DNA, 37 C 15 min; FP: 10 mM Tris-HCl pH 7.5, 75 mM NaCl. The following applies: protein: recombinant; tags: N-terminal His (PreScission-cleavable, removed if necessary); chain copies: 2; label: FAM; blunt. In general terms: In EMSA bound probe runs differently from free probe, usually more slowly.

Another series addresses T2, Fur P18AYdiV (Escherichia coli, UniProt P0A9A9 1-148, P18A).
T2 sequence: T1 sequence with P18A, A29P
Described as above. Conditions: protein: recombinant; tags: N-terminal His (PreScission-cleavable, removed if necessary); chain copies: 2; label: FAM; blunt.

Another series concerns the target T3, Fur P18A (Escherichia coli, UniProt P0A9A9 1-148, P18A).
T3 sequence: T1 sequence with P18A, A29P
The series is described as above. Conditions: protein: recombinant; tags: N-terminal His (PreScission-cleavable, removed if necessary); chain copies: 2; label: FAM; blunt.

The target in another series is T4, Fur P18ASlyD (Escherichia coli, UniProt P0A9A9 1-148, P18A).
T4 sequence: T1 sequence with P18A, A29P
The description is as above. Conditions: protein: recombinant; tags: N-terminal His (PreScission-cleavable, removed if necessary); chain copies: 2; label: FAM; blunt.

A further series deals with T5, Zn1Fur (Escherichia coli, UniProt P0A9A9 1-148).
T5 sequence: T1 sequence with A29P
The series is described as follows: FP; EDTA-treated Fur, no Mn2+ added; EMSA: 10 mM Tris-HCl pH 7.5, 1 mM MgCl2, 40 mM KCl, 0.1 mg/ml BSA, 5% glycerol, +/-100 uM MnCl2, 25 nM DNA, 37 C 15 min; FP: 10 mM Tris-HCl pH 7.5, 75 mM NaCl. The following applies: protein: recombinant; tags: N-terminal His (PreScission-cleavable, removed if necessary); chain copies: 2; label: FAM; blunt.

Series [2] deals with the molecule itself. The series is described as follows: SEC; Superdex 200, 10 mM Tris-HCl pH 8.0, 100 mM NaCl, proteins at 100-200 uM, 4°C; 62 kDa and 27 kDa proteins as markers. Background: In gel filtration, larger molecules generally elute earlier.

Positions count from the first letter of the chain named.

“SlyD in the bacterial two-hybrid plasmid pKNT25-slyD (from UniProt P0A9K9 1-196) (natural protein)”: the interaction strength relative to the negative control (β-galactosidase) (times the negative control) in series [1] amounted to 6.

“YdiV in the bacterial two-hybrid plasmid pKNT25-ydiV (from UniProt P76204 1-237) (natural protein)” came in with an interaction strength relative to the negative control (β-galactosidase) (times the negative control) in series [1] of 3.

B1: Fur box DNA (dsDNA)
DNA 1: GATAATGATAATGATAATGATAATGATAATGA
DNA 2: TCATTATCATTATCATTATCATTATCATTATC
B1: the binding result in the series with Fur P29A, with Fur P18AYdiV, with Fur P18A and with Fur P18ASlyD was “binds” each time. In addition, the Kd in the series with Zn1Fur was 7.2 µM.

B2: native Fur protein (ferric uptake regulator, overexpressed without YdiV) (natural protein, Escherichia coli, UniProt P0A9A9 1-148, looked up)
chain: T1 sequence with A29P
notes: Ferric uptake regulator Fur, Escherichia coli, from plasmid pGL01fur; In the pull-down for mass spectrometry Fur was held on Ni-NTA by its N-terminal His-tag and then released by PreScission cleavage; printed mass 17 089 Da per monomer; also called Zn1Fe1Fur; source: E. coli BL21 harboring pGL01fur; in lysate on Ni-NTA (pull-down) and purified (Ni-NTA, Superdex 200); not shown: His-tag, …
Consider B2, for which, in series [2], the “stoichiometry N” value was 2.

B3: Fur^YdiV protein (Fur co-expressed with untagged YdiV) (natural protein, Escherichia coli, UniProt P0A9A9 1-148, looked up)
chain: T1 sequence with A29P
notes: Ferric uptake regulator Fur, Escherichia coli, from plasmid pGL01fur, co-expressed with YdiV; also called Zn1Fe1Fur^YdiV; source: E. coli BL21 harboring pGL01fur and pACYCydiV; in lysate on Ni-NTA (pull-down) and purified (Ni-NTA, Superdex 200); not shown: His-tag, N-terminal, kept
For the molecule B3, in series [2], the “stoichiometry N” value came out at 2.

One may read the Kd as the equilibrium constant for the complex coming apart. For orientation: stoichiometry N means the number of molecules, sites or subunits per partner or assembly.
